These results are taken from the supplement of paper PMC5949888.

This series deals with Saccharomyces cerevisiae PS128 hsf1 delta, HSF1(1-493) fusion. Kind of series: growth estimate (transactivation domain function in HSF1 fusion, heat-shock survival) (a.u. (slope of normalised read count over time)); higher = stronger growth at 37°C, i.e. more transactivation activity. Particulars: library: design library. The gist of the method:
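Designed transactivation-domain oligos were fused to truncated yeast HSF1 (amino acids 1–493) and expressed in an hsf1-deleted yeast strain. Cells were replica-plated onto –trp 5-FOA plates and incubated at 30°C or 37°C for 0, 2, 4, 6 and 8 days. Inserts were PCR-amplified and Illumina MiSeq-sequenced as six barcoded replicates from one experiment. Growth estimate is the slope of a robust linear fit over time of read counts normalised to sample totals and starting count.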
Take VADDIWEELLSKDL: the growth estimate is 2.92. As for VADDIWEELLSPDL, the figure is 0.482; as for VADDIWEELLSRDL, 6.53; as for VADDIWEELPSEDL, less than -0.25. In the case of VADDIWEELRSEDL, the growth estimate is -0.205. As for VADDIWEERLSEDL, the growth estimate is less than -0.25.

VADDIWEGLLSEDL: the growth estimate was 0.676. VADDIWEKLLSEDL: the growth estimate was 2.03. For the sequence VADDIWEPLLSEDL, the growth estimate was -0.234. With VADDIWERLLSEDL, the growth estimate is 2.04. With VADDIWKELLSEDL, the growth estimate is 3.97.

Consider VADDIWPELLSEDL, for which the growth estimate was 0.612.

Regarding VADDIWRELLSEDL, the growth estimate is 7.56. For the sequence VADDKWEELLSEDL, the growth estimate was -0.236. Take VADDPWEELLSEDL: the growth estimate is -0.214. As for VADDRWEELLSEDL, the growth estimate is less than -0.25. For the sequence VADGIWEELLSEDL, the growth estimate was -0.0444.

On to VADKIWEELLSEDL, for which the growth estimate was -0.0109.

As to VADPIWEELLSEDL, the growth estimate was 0.903. Take VADRIWEELLSEDL: the growth estimate was -0.176.

Take VAGDIWEELLSEDL: the growth estimate is 0.447. For the sequence VAKDIWEELLSEDL, the growth estimate is 6.26.

As to VAPDIWEELLSEDL, the growth estimate is 3.05.

Take VARDIWEELLSEDL: the growth estimate is 2.59.

As for VGDDIWEELLSEDL, the growth estimate was 1.59. Turning to VKDDIWEELLSEDL, the growth estimate was -0.23. As for VRDDIWEELLSEDL, the figure is 0.609.
